1 molecule from patent US6518054B1, “Metallo-endopeptidases” (Rijksuniverstteit Te Groningen, priority 1997, dated 2003) can be followed below.

Series [1] deals with casein. The experiment in a line: Optimum temperature for activity with casein. It is filed as biochemical. On the procedure:
(§1) Specific activities for TLP-ste and the 8-fold mutant were determined using casein (0.8%) as a substrate in 50 mM Tris-HCl (pH 7.5), 5 mM CaCl2 at 37° C. […] (pH 7.0), 5 mM CaCl2, 5% or 1% DMSO, 0.5% isopropanol, 0.01% Triton X-100, 50 mM NaCl, with […] of substrate, by measuring the decrease in absorption at 345 nm (Î345=−317 M^−1·cm^−1). Stock solutions of the furylacryloylated dipeptides, (Sigma, St. Louis, […].) were prepared by dissolving 3-(-2-furylacryloyl)-L-glycyl-L-leucine amide (FaGLa) and 3-(-2-furylacryloyl)-L-alanyl-L-phenylalanine amide (FaAFa) in DMSO. The kcat/Km ratios of the enzymes were determined by varying the enzyme concentrations (over a 50 fold range) under pseudo-first order conditions by measuring the initial activity, essentially according to the method described by Feder^30. The Ki for phosphoramidon (N-[a-L-rhamnopyrano-syl-oxyhydroxyphophinyl]-L-leucyl-L-tryptophan) was determined by a 30 minute preincubation of a 100 pM protease solution with varying concentrations of the inhibitor (10^−8 to 10^−3 M), in 50 mM MOPS (pH 7.0), 5 mM CaCl2, 50 mM NaCl, prior to the addition of the furylacryloated substrate. For determination of the Ki FaAFa was used as the substrate. Since the Km of the substrate for the enzyme is higher than the concentration used, IC50 values were taken to be equal to Ki values. The optimum temperature for activity was determined by incubating proteases with casein (0.8%) in 50 mM Tris-HCl (pH 7.5), 5 mM CaCl2, at different temperatures for 30 minutes, after which the amount of released peptides, indicative for activity, was measured^11.

Series [2] has as its system casein. The experiment in a line: Specific activity with casein as substrate at 37° C. It is filed as biochemical. On the procedure: as §1

B1: 8-fold mutant: TLP-ste with A4T, T56A, G58A, T63F, S65P, A69P and a disulfide bridge G8C-N60C (protein)
chain: VAGTSTVCVGRGVLGDQKYINTTYSSYYGYYYLQDNTRGSGIFTYDGRNRTVLPGSLWADADCQFFAPYDAPAVDAHYYAGVVYDYYKNVHGRLSYDGSNAAIRSTVHYGRGYNNAFWNGSQMVYGDGDGQTFLPFSGGIDVVGHELTHAVTDYTAGLVYQNESGAINEAMSDIFGTLVEFYANRNPDWEIGEDIYTPGVAGDALRSMSDPAKYGDPDHYSKRYTGTQDNGGVHTNSGIINKAAYLLSQGGVHYGVSVNGIGRDKMGKIFYRALVYYLTPTSNFSQLRAACVQAAADLYGSTSQEVNSVKQAFNAVGVY
With B1, the “rise of temperature for optimum activity versus wild-type” value in the series with casein [1] is 21 °C. Also, the “Topt (optimum temperature for activity)” value in the series on casein [1] (casein 0.8%, 30 minutes) came to 95 °C. In addition, the “specific activities at 37° C., wild-type versus mutant” value in the series with casein [2] is “identical”. For the same molecule, in the series on casein [2] (casein 0.8%, pH 7.5, 5 mM CaCl2), the Specific activity casein was 3.9 ± 0.7 (U/mg) × 10^−3.
